Test results reported in publication PMC3820651, “Cyclic Nucleotide Dependent Dephosphorylation of Regulator of G-Protein Signaling 18 in Human Platelets” (PLoS ONE, 2013).

Target: T1, GST-tagged 14-3-3γ (UniProt P61981 1-247)
T1 construct: 14-3-3γ, in the bacterial expression vector pGEX-4T3; Held on glutathione sepharose 4B as bait; also called GST-14-3-3γ; GST-14-3-3
T1 sequence (looked up): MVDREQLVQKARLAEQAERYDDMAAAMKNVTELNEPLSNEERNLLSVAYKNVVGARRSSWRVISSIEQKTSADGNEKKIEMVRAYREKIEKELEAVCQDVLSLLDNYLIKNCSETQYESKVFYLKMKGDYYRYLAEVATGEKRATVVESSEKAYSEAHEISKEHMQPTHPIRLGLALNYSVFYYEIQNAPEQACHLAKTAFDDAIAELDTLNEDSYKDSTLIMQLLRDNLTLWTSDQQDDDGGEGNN
Test: pull-down; glutathione sepharose 4B saturated with purified GST-14-3-3γ, incubated with lysates of transfected HEK293T cells; cells without or with 10 µM forskolin (time course or 15 min), RGS18 alone or co-expressed with myc-spinophilin and/or VSV-PP1 catalytic subunit; precipitates blotted with anti-RGS18 or anti-FLAG
Conditions: one partner purified

B1: FLAG-tagged RGS18 (wild type) (natural protein, human, UniProt Q9NS28 1-235, looked up)
chain: METTLLFFSQINMCESKEKTFFKLIHGSGKEETSKEAKIRAKEKRNRLSLLVQKPEFHEDTRSSRSGHLAKETRVSPEEAVKWGESFDKLLSHRDGLEAFTRFLKTEFSEENIEFWIACEDFKKSKGPQQIHLKAKAIYEKFIQTDAPKEVNLDFHTKEVITNSITQPTLHSFDAAQSRVYQLMEQDSYTRFLKSDIYLDLMEGRPQRPTNLRRRSRSFTCNEFQDVQSDVAIWL
modifications: phosphoserine at S218 present in the basal state; phosphoserine at S49 (s3 band); phosphoserine at S216 after forskolin
notes: Regulator of G-protein signaling 18 (RGS18), 235 amino acids, in pcDNA4/TO; also called wt RGS18; wt-RGS18; source: HEK293T, transfected, in lysate
- fold reduction of binding by forskolin against non-treated cells (cells expressing RGS18, spinophilin and PP1): 21 fold
- fold reduction of binding by forskolin against non-treated cells (cells expressing RGS18 alone): 2.6 fold
- fold reduction of binding by forskolin against non-treated cells (cells expressing RGS18 and PP1): 25 fold
- fold reduction of binding by forskolin against non-treated cells (cells expressing RGS18 and spinophilin): 3.7 fold
